In the supplement of paper PMC12636428:

Test system: Saccharomyces cerevisiae
Test: transcriptional activation domain activity (GFP:mCherry ratio, weighted mean of sorted bins, harmonized to initial dataset scale) (arbitrary fluorescence ratio units); higher = stronger transcriptional activation
Conditions: beta-estradiol 1 µM; induction time 4 h
Procedure, shortened: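 Each value is an activation activity: the read-weighted mean of bin median fluorescence, averaged across barcodes, then mapped linearly to the initial dataset scale. The tiles, fused to an estradiol-inducible synthetic transcription factor, sat at the yeast URA3 locus in GFP-reporter diploids. Cells spent 4 hours at 30 °C in SC with 1 uM beta-estradiol before sorting into 8 GFP:mCherry bins, and tiles below 50 reads were removed.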

Row | Sequence | transcriptional activation domain activity
1 | DDEHEDRHREGRGSRGDRTRSASADSKHRSSRRDKEKHRSSRSHRDRSKEQRR | 37400
2 | NTCCCFFVCSFPSSKQKTLGALREGSWTFFFCFFLFFFLFFLVFFCFFLFCFF | 24000
3 | MQTKVFVFPLFLHYLYCVIFHLLWILFGIAFIFSLVSIIIYLLIVFAHLFHFV | 66700
4 | DMKDRGLFQCNPYRYAKECCRFVGLFYTAIWLVLRGTHIGHYVISATCLAVLW | 68200
5 | SSSKSAADVAAGEGKKTEKAGEKKEGTAAAAEKKKIEEKPAREEKKEEEKVPV | 24300
6 | IDFHQHESLIGTEDAFFWFLVPLIGVVCIGVCTVLHYVVLIFTHSFRLLYSLV | 26700
7 | MVTVGILHYLLIGNLLTNVLFGVYVQMAWKCSCIFYRKYQMGQVHSYHLFSFI | 80900
8 | GGKKGGRTKGATARDKSPEGRTDRPASKGKSLKTGGEDGKGKKSGERAGKLAH | 60400
9 | GKEVVDIQEAEVEEGGVKREKVRVVFKDGTDAVGDLVVGCDGARSRARECIVG | 45700
10 | QHLRSDPQMRLWLVMFLFLTFMVHTILSATLSIIFVSITYSLFWLPQIVRSAR | 30800
11 | DVKISNDFFDNGDNLYGNDEEVLFYEDNYNPKMQWSLQDNSAAINNEDARAIF | 107000
12 | DDERERKRAKGDKDEECHKEPKRSARDKQEESSTTRNSRQSKKPKTAAQPEAK | 7230
13 | DAPPQKGDRKAEVQDGENGDEVGQDPKGKDKGGRGRGRGGRGRGGAARGGATA | 36600
14 | GHSIPRLNFGDGYNLNNGRAYRGGTWASTLRYRKSNGLWYWIGCVNFWHTWIF | 75000
15 | CWILGFISVFTFAYLVLTVLPNLYLNCPYSTPLSELSWRLSQHLLLLILHLIR | 69500
16 | VALACLLTVLPFLVVLGTFILSLTIYTFFLDRSIMVAFFHPFLHPFFFFSFFV | 25400
17 | VPRLKSPVYCVCLGSIILYSICLVLLVIYRVALIRESDGVCLIGFARGGSLPL | 31200
18 | VTCFGILCFLLSALYLCIGFDPFINQLLYCGVLWLFQGIYFVLFGMKVALHFQ | 36200
19 | MSPPEQSGGAPKHRACDECRARKLACSKEPDGCARCKRESQVCHYSAQKPMGR | < 6570
20 | DNLLGMDYYNIDDLLTQELRDLDIPLVPSPKTGDGSSDKKNIDRTWNLGDENN | 79900
21 | MAPQRRPAAEVISSDSDDEAARPTGSAATRSAGGGGAGGGRRIVLTGRGNNSS | 20400

Row | Sequence | transcriptional activation domain activity
22 | FYGLYPDNAQTLGSAPKTPTMRLVKAYLKTILSNPESRKIFYFLVLNLSYMMV | 85300
23 | SNDGEDENGDGVSNEKSGRKKGKGRRKRGKDQAQVKGDQEPQDGEAGGEGGAE | 21600
24 | SFNDTSFLNMEDPIRNEFSFDNGDRAVTDLPRSAHFLSDTGLEGINFSGLNDS | 55200
25 | HTVGGKPSELMRSSEEDEDKICGAIGCDDTESAPSNACGRCKRVYYCSRACQT | 42800
26 | FSYFYCFFFPLFTFFLFHIFVLLSIKQFLFLFLFVFLFLVLLFIVPPLFPVSV | 17300
27 | VWFKIVWAWLYVFTSTWLLGVFLSYVKWWLLWVPWFLRSRVRCCVFLAILYIV | 73800
28 | QANGVEKAVENLSISSPHPDTHAQSAPEQNGPKKKPNRAKARLARRAAEYEAL | 14100
29 | PEEEEQAEAGVDSSIVEIAPKRGRGRPRKSLPTEGTTAEAPAKRGRGRPKKVS | 27600
30 | VYIFLTFFIATWWPLCLVNLFGWMLLYLFRGVFPEAIMLIFNVLSRVVTIHRI | 42000
31 | MYYLLLPLAYSLSHSVFFFFSVFLLRVLQYHGWWPFLLSSLCVFFLACVFVKG | 27100
32 | ALSTRPFVLSDMIFFFGVGTLITLPIPFLVIYDYPYKKPRTYQVYLLICVWAW | 61500
33 | MFCLRSWIPVLFFLLRTHASPVYLVLFISATYFLNRPCVYCSLLLFILVVALF | 84400
34 | GGAAPAAAPADNRPPEERYAEQLRQLNDMGFFDFDRNVAALRRSGGSVQGAIE | 44000
35 | VVDHCVSRFSGFTFLFFVLFTAFYMWQIISFVLGVLRLVDMYNFYTHLLKIPD | 54300
36 | MIPFQTGQVMGMLNRIDRLPLKEILTYAMPYLLEKTNVSMIIRQYLWSTLGNH | 44100
37 | MYPFLFFLSFLLFSSLTFLFSLLSFEFKFFFTFSSSFFFFCLTLCFFCQSFFF | 36400
38 | MGKRRRLLAKAQPKSGGSTSAKHHPQQGTGKAVAARGQKPQKQQGAPRNGSNG | 21900
39 | AAGAAAPAKAAPAGARKARKGAAAAAPAAAPAAGAAPAQGAAAKKGGRLGGAA | 30000
40 | MSCLDWNVFVFFFYLSILIFRLITHHYLSVFDLFFLYPFFLFLFTFPPTSFLL | 49500
41 | IIAAKPEVLVKEEAAVKEEVPKAAAAKPKAKGKGKGKGKGKKVAEKKPEPVAE | 22400
42 | DDETADGERQSKREKADDDDDGEEMEIDEEEESAANRNTAVVPPAVQKPSARL | 19200

Row | Sequence | transcriptional activation domain activity
43 | QLKVVRITFSGLGAVALTICPCTPVVEQLLQAVHLKVLYLVKELFVCIPPNTS | 48500
44 | MLNLSYPFVLFILVPLILIPTCFCPFFVGPSYMSFCLSWLLPLFSFLPLLMLM | 50300
45 | GARRQARRPRKRESSAADGDDNDADRMDVDREEARGGREQADAGDAEDEDDEE | 40000
46 | SKMLTEFKQKLRLDYFMLLDLRLWKDMRMCLRKMFISTLVANLSYKRILGVRF | 73200
47 | HLLYVYLVLIAVVISSYRCFLNVSTRSIVICLLTHAFWPPLTFIIVCSAFWIP | 73100
48 | DADMIVRLALKARLRWLLPKLTWLRIYFDGLYSNGDVLRVLILPKLLHLLIMC | 66000
49 | YYAECCTHTGNAHKVQRKMLNPVFTTKHMKARMWYQFMLLFLKEALMNELKGY | 14300
50 | MSEPPRKRAKLACVTCNARRVKCDVTDRHPCSNCAAGNVECETRESRRGKHIR | 24000
51 | MLVVELLPAIESFFGHIFCTDFMFCFLFFYIIYIFFFSRFSVIANYTVMSLYF | 85300
52 | ILFMLFYYLSIYFIGTLGGIWLATYIMSFRENLVIQLVIARVCFIVALGVVMA | 35400
53 | TEAPKEEAAPAPVEEAPKQEEAPADAPAEEAAPAAAEEAPKETAAASPPKRGI | 47800
54 | VCLSLYIITCVFGWLLYFITATLSYYYVFDHDYMKHPKFLKNQIRLEINCAAS | 76600
55 | IRLLISKHWLPVLFSFRGFMELTTTVPFLLSTYIPNGRYLYVPYFIRSWVLLL | 72800
56 | IEKLGITVLQREVVNNGLEISHDFRALRVALCARQPLLQVVWFKNHLPSVYYF | 69900
57 | GVCLKVGITRPKKPNSGERKTARVRLSSGRMITAYVPGEGHNIQQHSVVLVRG | 51900
58 | MAWAIQGRLFSFNCSCSHFIFWPLFFFFSLPWRAWSSIGNNSRFSRLFFFFFL | 60900
59 | PSIRRCPVSFGDIDMEAELACIQYIREVLLPELVPCAYILLSYILHLLHEVSL | 77000
60 | FGSWGRGLCPLVFREAGWLELWGCVCVGGTLVWCLPYGILPMSYWRIWGLLRW | 74600
61 | AKKESKADGEEKPKAARGKKRKVDEEAEEEEGAEKPASKKAKPVSKAKSAAGS | 17000
62 | MSSPKRITVLISGSGTNLQALMDAAGSSRLPNAQITHVISSRSAVKGLERAST | 53800
63 | MRWTSTISFFLLPLGFFFSFHPFHIPFSTFLVSFEICIFFLSFFFSFLPIFLF | 58500

Row | Sequence | transcriptional activation domain activity
64 | MRHEHGGMAFNVFFLWTFMYLCLWLRVNVLCFMSISLFLMSLFFLFFLVWLSG | 51200
65 | MRRVARSTKGGKVRSLAALVVVGNGNGVGGFGEGRAVDSAQAVAKATAAATKN | 32500
66 | MILFFFAHRGLFLVYSASFCLCCDCLYFFLVYTFFFTLHNPFFLVPLFFSIIL | 62900
67 | VFLGMLFWHCRNYLTSYHYLFSTLAIWVLSYIMRLFYLNWSNPWRMSWLIGDE | 58300
68 | MSRVRLAPEGHMFFFVLIVFIFCFFCLFLFLAGDLKGGWLFFLRFGMGWVFLG | 21600
69 | MYLEVRCQLLGCMAIWWDNWFRLDLLSLVSAYRILLLCMGEFLIWKFWFIRLF | 60000
70 | ENKKEEPKSAKPTSKKAEKPVSKKADAETGEKRAADETKPAEKPASKKAKTDA | 30800
71 | RADHARRKSPARSRSASASSRSSSRSRSGSRGSDQANRRRRAASPGAQGDGRK | 39900
72 | MTISSPYCLFRCVAYGPWQTLSVLFCFFFFLLLFLSPSLHHLFYFLSLDFFSY | 55500
73 | ITMQQIQRDSDKYLCIQGVFELFRSPLYTVLTLDKSVLGPTVLVRLLTVLAER | 39400
74 | MPASSSTAAASPGNSHNVVGVHYKVGKKIGEGSFGIIYEGKQKEERTNLLNNQ | 35300
75 | MATLDEALDNEGGKRRRSHKKSRRGCGDCRRRRVKCSEENPRCQACVRRGVQC | 67400
76 | TASTGTEARNAETTTRRVRSGIVNRRSHAKSRTGCRTCKRRRIKCDESRPSCR | 22400
77 | LGGNSGRATPGGGESRASTRKSKSKGAAKSRSRSPSRGRNRAGSKKKAGAAAT | 38700
78 | MFLYSHPPLHPNVFLPPPSLFICTMLQLVFYRPSSVYLLLLLFWIYPPLFLLC | 56400
79 | VLCTCVPRQLVEPLVKLRKIHRRLAMTWIAALDYFASYRLVPFIRMIMELESV | 44700
80 | YGADDFFFPPEGCDNNMLYPQTATSWNVLPPQAMQPAPTYVGRPYTPNYRSTP | 71900
81 | MPSAYHLGITPFGVHQWDINLRTLQRYLFFLYCCWIIWGILVLLLKVIILLQY | 39700
82 | KEKAKAKAKERKREERRKEKEKRAKEKEREKKRLREKEKRRKEKEKEKRRKEK | 14900
83 | RVPWSSAISKRLQTYHEMLQSFPFVWRMIKDVLGLKSCRYLLVLYLFCEAVTS | 62000
